Substitutions are numbered along the chain they refer to. Numbers in names are those of the source.
B1: E35D/M47V/T62S/L85Q (protein)
chain: VIHVTKEVKEVATLSCGHNVSVEELAQTRIYWQKDKKMVLTMMSGDVNIWPEYKNRTIFDISNNLSIVILALRPSDEGTYECVVQKYEKDAFKREHLAEVTLSVKAD
B2: E35D/M47V/L85M/R94Q (protein)
chain: B1 chain with S62T, Q85M, R94Q
B3: E35D/M47V/I61V/L85M (protein)
chain: B1 chain with I61V, S62T, Q85M
B4: E35D/M47V/V68M/L85M (protein, UniProt P33681 35-288, looked up, variant E35D M47V V68M L85M)
T-lymphocyte activation …: VIHVTKEVKEVATLSCGHNVSVEELAQTRIYWQKDKKMVLTMMSGDVNIWPEYKNRTIFDITNNLSIMILALRPSDEGTYECVVMKYEKDAFKREHLAEVTLSVKADFPTPSISDFEIPTSNIRRIICSTSGGFPEPHLSWLENGEELNAINTTVSQDPETELYAVSSKLDFNMTTNHSFMCLIKYGHLRVNQTFNWNTTKQEHFPDNLLPSWAITLISVNGIFVICCLTYCFAPRCRERRRNERLRRESVRPV
B5: H18Y/E35D/M47V/V68M/L85M (protein, UniProt P33681 35-288, looked up, variant H18Y E35D M47V V68M L85M)
T-lymphocyte activation …: B4 T-lymphocyte activation … with H18Y
B6: H18Y/E35D/M47L/V68M/E95V/L97Q (protein, UniProt P33681 35-288, looked up, variant H18Y E35D M47L V68M E95V L97Q)
T-lymphocyte activation …: B4 T-lymphocyte activation … with H18Y, V47L, M85L, E95V, L97Q
B7: R29C/E35D/M47L/V68M/A71G/L85M (protein, UniProt P33681 35-288, looked up, variant R29C E35D M47L V68M A71G L85M)
T-lymphocyte activation …: B4 T-lymphocyte activation … with R29C, V47L, A71G
modifications: Fc fusion
B8: V22D/E24D/E35D/M47V/V68M (protein)
chain: VIHVTKEVKEVATLSCGHNVSDEDLAQTRIYWQKDKKMVLTMMSGDVNIWPEYKNRTIFDITNNLSIMILALRPSDEGTYECVVLKYEKDAFKREHLAEVTLSVKADFPTPSISDFETPTSNIRRIICSTSGGFPEPHLSWLENGEELNAINTTVSQDPETELYAVSSKLDFNMTTNHSFMCLIKYGHLRVNQTFNWNTTKQEHFPDN
modifications: CD80 v385 ECD
B9: E35D/M47V/K89N (protein)
chain: B1 chain with S62T, Q85L, K89N
B10: N48K/V68M (protein)
chain: B1 chain with D35E, V47M, N48K, S62T, V68M, Q85L
B11: E35D/N48K/V68M (protein)
chain: B1 chain with V47M, N48K, S62T, V68M, Q85L
B12: M47V/K89N (protein)
chain: B1 chain with D35E, S62T, Q85L, K89N
B13: H18Y/A26E/E35D/V68M (protein)
chain: B1 chain with H18Y, A26E, V47M, S62T, V68M, Q85L
B14: H18Y/A26E/M47L/D90G (protein)
chain: B1 chain with H18Y, A26E, D35E, V47L, S62T, Q85L, D90G
B15: A26E/M47L/V68M/D90G (protein)
chain: B1 chain with A26E, D35E, V47L, S62T, V68M, Q85L, D90G
B16: A26E/M47L/V68M/A71G (protein)
chain: B1 chain with A26E, D35E, V47L, S62T, V68M, A71G, Q85L
B17: H18I/A26P/E35D/M47V/V68M/A71G (protein, UniProt P33681 35-288, looked up, variant H18I A26P E35D M47V V68M A71G)
T-lymphocyte activation …: B4 T-lymphocyte activation … with H18I, A26P, A71G, M85L
B18: H18L/E35D/M47V/V68M/A71G/D90G (protein, UniProt P33681 35-288, looked up, variant H18L E35D M47V V68M A71G D90G)
T-lymphocyte activation …: B4 T-lymphocyte activation … with H18L, A71G, M85L, D90G
B19: H18V/A26G/E35D/M47V/V68M/A71G/D90G (protein, UniProt P33681 35-288, looked up, variant H18V A26G E35D M47V V68M A71G D90G)
T-lymphocyte activation …: B4 T-lymphocyte activation … with H18V, A26G, A71G, M85L, D90G
B20: H18Y/A26P/E35D/M471/V68M/A71G (protein)
chain: B1 chain with H18Y, A26P, V47I, S62T, V68M, A71G, Q85L

What follows are molecules tested against T1, CD28 (Homo sapiens, UniProt P10747) (assay: Flow binding to Jurkat/IL2 reporter cells (CD28)). Conditions: Table E10; 33.3 nM; Jurkats (CD28).
Design: host or cells: Jurkat cells expressing an IL-2-luciferase reporter
Method in brief: (§1)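 Binding EC50 and PE mean fluorescence intensity derived by flow cytometry using PE-labelled anti-human Fc secondary. Target cells were CTLA4- or PD-L1-transfected CHO lines and CD28-expressing Jurkat/IL2 reporter cells, stained with fusion proteins on ice for 45 min following BSA blocking.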

Row | CD28 MFI at 33.3 nM | Molecule
1 | 99.4 | B1
2 | 23.7 | B2
3 | 274 | B3

Same assay, conditions: Table E11; Jurkats (CD28); 33.3 nM

Row | CD28 MFI at 33.3 nM | Molecule
4 | 201 | B4
5 | 373 | B5
6 | 14.5 | B6
7 | 16 | B7
8 | 191 | B8

Same assay, conditions: Table E16; consensus variants; Jurkats (CD28); 33.3 nM

Row | CD28 MFI at 33.3 nM | Molecule
9 | 1387 | B5
10 | 2602 | B6

Same assay, conditions: Table E19; Jurkats (CD28); 33.3 nM

Row | CD28 MFI at 33.3 nM | Molecule
11 | 507 | B9
12 | 118 | B10
13 | 642 | B11
14 | 197 | B12

Same assay, conditions: Table E20; Jurkats (CD28); 33.3 nM

Row | CD28 MFI at 33.3 nM | Molecule
15 | 372 | B13
16 | 2858 | B14
17 | 2583 | B15
18 | 98.7 | B16

Same assay, conditions: Table E23; CD80 IgV-Fc (inert) at 33.3 nM; Jurkat (CD28)

Row | CD28 MFI at 33.3 nM | Molecule
19 | 2573 | B17
20 | 6349 | B18
21 | 8189 | B19
22 | 5125 | B20

Same assay, conditions: Table E23; MFI at 33.3 nM relative to CD80 WT IgV-Fc

Row | CD28 Fold change to WT CD80 | Molecule
23 | 25.2 | B17
24 | 50.2 | B20

What follows are molecules tested against huCTLA4 (Homo sapiens, UniProt P16410) (assay: Flow binding to CHO cells stably expressing CTLA4). Conditions: Table E10; 33.3 nM; CHO cells stably expressing CTLA4.
Chain of huCTLA4 (P16410 36-223): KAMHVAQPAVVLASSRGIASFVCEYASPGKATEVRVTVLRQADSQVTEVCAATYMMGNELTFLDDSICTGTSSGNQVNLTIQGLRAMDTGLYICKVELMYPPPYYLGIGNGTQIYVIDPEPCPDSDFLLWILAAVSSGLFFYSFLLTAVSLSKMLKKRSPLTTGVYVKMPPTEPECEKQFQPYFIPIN
Design: huCTLA4 and huPD-L1, full-length mammalian surface expression constructs were generated; expressed in transfected cells; host or cells: CHO cells, lentiviral transduction, sorted to >98% purity
Method in brief: as §1

Row | CTLA4 MFI at 33.3 nM | Molecule
25 | 31230 | B1
26 | 23334 | B2
27 | 28848 | B3

Same assay, conditions: Table E11; CHO cells stably expressing CTLA4; 33.3 nM

Row | CTLA4 MFI at 33.3 nM | Molecule
28 | 15997 | B4
29 | 18367 | B5
30 | 20475 | B6
31 | 91 | B7
32 | 16899 | B8

Same assay, conditions: Table E16; consensus variants; CHO cells stably expressing CTLA4; 33.3 nM

Row | CTLA4 MFI at 33.3 nM | Molecule
33 | 19306 | B5
34 | 18022 | B6

Same assay, conditions: Table E19; CHO cells stably expressing CTLA4; 33.3 nM

Row | CTLA4 MFI at 33.3 nM | Molecule
35 | 39282 | B9
36 | 2341 | B10
37 | 33583 | B11
38 | 32381 | B12

Same assay, conditions: Table E20; CHO cells stably expressing CTLA4; 33.3 nM

Row | CTLA4 MFI at 33.3 nM | Molecule
39 | 20929 | B13
40 | 23485 | B14
41 | 21900 | B15
42 | 3227 | B16

Same assay, conditions: Table E23; CD80 IgV-Fc (inert) at 33.3 nM; CHO cells stably expressing CTLA4

Row | CTLA4 MFI at 33.3 nM | Molecule
43 | 21923 | B17
44 | 20280 | B18
45 | 25398 | B19
46 | 12156 | B20

Same assay, conditions: Table E23; MFI at 33.3 nM relative to CD80 WT IgV-Fc

Row | CTLA4 Fold change to WT CD80 | Molecule
47 | 15.8 | B17
48 | 8.8 | B20

What follows are molecules tested against T1, CD28 (assay: Jurkat/IL2 + CHO/OKT3 +/- PD-L1 reporter assay: PD-L1-dependent CD28 costimulation). Conditions: Table E12; Jurkat/IL2 + CHO/OKT3/PD-L1; 5.0 nM.
Type: cell-based
Design: host or cells: Jurkat cells expressing an IL-2-luciferase reporter
Method in brief: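 Readout is relative luminescence from lysed cocultures: test protein given 15 min at room temperature to Jurkat cells before adding CHO artificial APCs displaying OKT3 alone or OKT3 plus PD-L1, then 5 h at 37 °C, 5% CO2.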

Row | Relative Luciferase Units (RLU), CD80 Cone 5.0 nM | Molecule
49 | 1402 RLU | B1
50 | 466 RLU | B2
51 | 1176 RLU | B3

Same assay, conditions: Table E13; Jurkat/IL2 + CHO/OKT3/PD-L1; 5.0 nM

Row | Relative Luciferase Units (RLU), CD80 Cone 5.0 nM | Molecule
52 | 1167 RLU | B4
53 | 1013 RLU | B5
54 | 225 RLU | B6
55 | 155 RLU | B7
56 | 1023 RLU | B8

Same assay, conditions: Table E17; consensus variants; Jurkat/IL2 + CHO/OKT3/PD-L1; 5.0 nM

Row | Relative Luciferase Units (RLU), CD80 Cone 5.0 nM | Molecule
57 | 2575 RLU | B5

Same assay, conditions: Table E21; Jurkat/IL2 + CHO/OKT3/PD-L1; CD80 Conc 5.0 nM

Row | Relative Luciferase Units (RLU), CD80 Conc 5.0 nM | Molecule
58 | 668 RLU | B9
59 | 721 RLU | B11

Each molecule was assayed against huPD-L1 (Homo sapiens, UniProt Q9NZQ7) (assay: Flow binding to CHO cells stably expressing PD-L1). Conditions: Table E19; CHO cells stably expressing PD-L1; 33.3 nM.
Chain of huPD-L1 (Q9NZQ7 19-290): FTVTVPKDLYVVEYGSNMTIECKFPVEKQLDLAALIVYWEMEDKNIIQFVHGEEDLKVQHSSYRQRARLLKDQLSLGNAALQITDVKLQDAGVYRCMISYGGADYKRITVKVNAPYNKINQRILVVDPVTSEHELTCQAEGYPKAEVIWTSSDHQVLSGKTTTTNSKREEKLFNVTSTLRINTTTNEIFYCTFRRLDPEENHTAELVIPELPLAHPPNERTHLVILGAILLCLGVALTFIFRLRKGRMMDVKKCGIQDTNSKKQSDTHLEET
Design: huCTLA4 and huPD-L1, full-length mammalian surface expression constructs were generated; expressed in transfected cells; host or cells: CHO cells, lentiviral transduction, sorted to >98% purity
Method in brief: as §1

Row | PD-L1 MFI at 33.3 nM | Molecule
60 | 754 | B10
61 | 622 | B12

Same assay, conditions: Table E20; CHO cells stably expressing PD-L1; 33.3 nM

Row | PD-L1 MFI at 33.3 nM | Molecule
62 | 17904 | B13
63 | 8933 | B14
64 | 10626 | B15
65 | 1667 | B16

Same assay, conditions: Table E23; CD80 IgV-Fc (inert) at 33.3 nM; CHO cells stably expressing PD-L1

Row | PD-L1 MFI at 33.3 nM | Molecule
66 | 64919 | B17
67 | 64761 | B18
68 | 66198 | B19
69 | 54482 | B20

Same assay, conditions: Table E23; MFI at 33.3 nM relative to CD80 WT IgV-Fc

Row | PD-L1 Fold change to WT CD80 | Molecule
70 | 393.4 | B17
71 | 330.2 | B20

Same assay, conditions: Table E23; ratio of MFI at 33.3 nM

Row | Ratio of PDL1:CD28 | Molecule
72 | 25.2 | B17
73 | 10.6 | B20

— US20220177587A1, “METHODS AND USES OF VARIANT CD80 FUSION PROTEINS AND RELATED CONSTRUCTS” (Alpine Immune Sciences, Inc., priority 2018, published 2022)
